Earlier results, collected in paper PMC7192543.

Assays:
[1] = target: OmpR~P (Escherichia coli) (UniProt P0AA16)
OmpR (Escherichia coli) = OmpR (Escherichia coli) (UniProt P0AA16); assay: fluorescence anisotropy

Substance	Kd [1]	Kd (OmpR (Escherichia coli))
EnvZ (from UniProt P0AEJ4)	> 5000 nM	–
EnvZ cytoplasmic domain (EnvZc) (from UniProt P0AEJ4)	–	425 nM
